From patent US10221225B2, “Peptides and combination of peptides and scaffolds thereof for use in immunotherapy against colorectal carcinoma (CRC) and other cancers” (immatics biotechnologies GmbH, priority 2015, dated 2019) come the findings set out here.

In one experiment the test system is CD8+ T-cells. In words: In vitro T-cell priming assay with aAPCs loaded with peptide/MHC and anti-CD28, pMHC multimer readout. The class given is cell-based, human. The conditions noted are these: in vitro immunogenicity, HLA class I peptides. An excerpt:
In order to obtain information regarding the immunogenicity of the TUMAPs of the present invention, the inventors performed investigations using an in vitro T-cell priming assay based on repeated stimulations of CD8+ T-cells with artificial antigen presenting cells (aAPCs) loaded with peptide/MHC complexes and anti-CD28 antibody.
In order to perform in vitro stimulations by artificial antigen presenting cells loaded with peptide-MHC complex (pMHC) and anti-CD28 antibody, the inventors first isolated CD8+ T-cells from fresh HLA-A*02 leukopheresis products via positive selection using CD8 microbeads (Miltenyi Biotec, Bergisch-Gladbach, Germany) of healthy donors obtained from the University clinics Mannheim, Germany, after informed consent.
PBMCs and isolated CD8+ lymphocytes were incubated in T-cell medium (TCM) until use consisting of RPMI-Glutamax (Invitrogen, Karlsruhe, Germany) supplemented with 10% heat inactivated human AB serum (PAN-Biotech, Aidenbach, Germany), 100 U/ml Penicillin/100 μg/ml Streptomycin (Cambrex, Cologne, Germany), 1 mM sodium pyruvate (CC Pro, Oberdorla, Germany), 20 μg/ml Gentamycin (Cambrex). 2.5 ng/ml IL-7 (PromoCell, Heidelberg, Germany) and 10 U/ml IL-2 (Novartis Pharma, Nürnberg, Germany) were also added to the TCM at this step.
Generation of pMHC/anti-CD28 coated beads, T-cell stimulations and readout was performed in a highly defined in vitro system using four different pMHC molecules per stimulation condition and 8 different pMHC molecules per readout condition.
The purified co-stimulatory mouse IgG2a anti human CD28 Ab 9.3 (Jung et al., 1987) was chemically biotinylated using Sulfo-N-hydroxysuccinimidobiotin as recommended by the manufacturer (Perbio, Bonn, Germany). Beads used were 5.6 μm diameter streptavidin coated polystyrene particles (Bangs Laboratories, Illinois, USA).
800,000 beads/200 μl were coated in 96-well plates in the presence of 4×12.5 ng different biotin-pMHC, washed and 600 ng biotin anti-CD28 were added subsequently in a volume of 200 μl. Stimulations were initiated in 96-well plates by co-incubating 1×10^6 CD8+ T-cells with 2×10^5 washed coated beads in 200 μl TCM supplemented with 5 ng/ml IL-12 (PromoCell) for 3 days at 37° C. Half of the medium was then exchanged by fresh TCM supplemented with 80 U/ml IL-2 and incubating was continued for 4 days at 37° C. This stimulation cycle was performed for a total of three times. For the pMHC multimer readout using 8 different pMHC molecules per condition, a two-dimensional combinatorial coding approach was used as previously described (Andersen et al., 2012) with minor modifications encompassing coupling to 5 different fluorochromes. Finally, multimeric analyses were performed by staining the cells with Live/dead near IR dye (Invitrogen, Karlsruhe, Germany), CD8-FITC antibody clone SK1 (BD, Heidelberg, Germany) and fluorescent pMHC multimers. For analysis, a BD LSRII SORP cytometer equipped with appropriate lasers and filters was used. Peptide specific cells were calculated as percentage of total CD8+ cells. Evaluation of multimeric analysis was done using the FlowJo software (Tree Star, Oregon, USA). In vitro priming of specific multimer+ CD8+ lymphocytes was detected by comparing to negative control stimulations.
Turning to “219 (FLDEKGRCV; listed as Homo sapiens) [compound 219]”, the “donors (percentage of positive donors)” value was “+++ (50%-69% = +++)” and the “wells (percentage of positive wells)” value is “++ (20%-49% = ++)”. On the same counts, the results for “220 (KMDPVAYRV; listed as Homo sapiens) [compound 220]” are “++++ (>=70% = ++++)” and “+++ (50%-69% = +++)”.

Staying with this experiment, now noted: in vitro immunogenicity, HLA-A*02 restricted peptides.
For the substance “1 (ALIKQLFEA; listed as Homo sapiens) [compound 1]”, the Wells positive entry is listed as “″+″ (<20% = +)”. The same measure, in the same setting: the entry for “2 (ALLPRYFFL; listed as Homo sapiens) [compound 2]” is “″++++″ (>= 70% = ++++)”; for “3 (RLIPDTLYSV; listed as Homo sapiens) [compound 3]” it is “″+++″ (50%-69% = +++)”. With “5 (WLFDDGGLTL; listed as Homo sapiens) [compound 5]”, the Wells positive entry is listed as “″++″ (20%-49% = ++)”. On the same count and under the same terms, the entry for “7 (YLTRHLAVL; listed as Homo sapiens) [compound 7]” is “″+″ (<20% = +)”; for “9 (ILDDHLSRV; listed as Homo sapiens) [compound 9]” it is “″+″ (<20% = +)”; for “10 (RMYNKIFAI; listed as Homo sapiens) [compound 10]” it is “″++++″ (>= 70% = ++++)”.

For the next experiment, the target named is HLA-A*02:01 (Homo sapiens, UniProt P04439, D140Y/D185E/D98H/E176V/E277Q/G131W/G231S/I119V/I121R/I166T/I218V/L300P/L318F/N151K/N90K/P208A/P217A/Q86G/Q94H/R138H/R169H/T345S). In words: MHC binding assay (UV-ligand exchange, beta2m ELISA, peptide exchange yield). The conditions noted are these: MHC class I binding score; binding to HLA-A*02:01 ranged by peptide exchange yield (UV-ligand exchange, β2m ELISA). An excerpt:
Candidate peptides for T cell based therapies according to the present invention were further tested for their MHC binding capacity (affinity). The individual peptide-MHC complexes were produced by UV-ligand exchange, where a UV-sensitive peptide is cleaved upon UV-irradiation, and exchanged with the peptide of interest as analyzed. Only peptide candidates that can effectively bind and stabilize the peptide-receptive MHC molecules prevent dissociation of the MHC complexes. To determine the yield of the exchange reaction, an ELISA was performed based on the detection of the light chain (β2m) of stabilized MHC complexes. The assay was performed as generally described in Rodenko et al. (Rodenko et al., 2006).
96 well MAXISorp plates (NUNC) were coated over night with 2 ug/ml streptavidin in PBS at room temperature, washed 4× and blocked for 1 h at 37° C. in 2% BSA containing blocking buffer. Refolded HLA-A*02:01/MLA-001 monomers served as standards, covering the range of 15-500 ng/ml. Peptide-MHC monomers of the UV-exchange reaction were diluted 100 fold in blocking buffer. Samples were incubated for 1 h at 37° C., washed four times, incubated with 2 ug/ml HRP conjugated anti-β2m for 1 h at 37° C., washed again and detected with TMB solution that is stopped with […]. Absorption was measured at 450 nm. Candidate peptides that show a high exchange yield (preferably higher than 50%, most preferred higher than 75%) are generally preferred for a generation and production of antibodies or fragments thereof, and/or T cell receptors or fragments thereof, as they show sufficient avidity to the MHC molecules and prevent dissociation of the MHC complexes.
(An ELISA detects its analyte on a solid surface through an enzyme-linked reagent.)
As for “1 (ALIKQLFEA; listed as Homo sapiens) [compound 1]”, the Peptide exchange entry is “″+++″ (≥50 = +++)”. The same measure, in the same setting: in the case of “2 (ALLPRYFFL; listed as Homo sapiens) [compound 2]” it was “″++″ (≥20% = ++)”. Still for that read-out and setting: in the case of “3 (RLIPDTLYSV; listed as Homo sapiens) [compound 3]” it was “″++++″ (≥75% = ++++)”. On the same count and under the same terms, in the case of “5 (WLFDDGGLTL; listed as Homo sapiens) [compound 5]” it was “″++++″ (≥75% = ++++)”; in that of “7 (YLTRHLAVL; listed as Homo sapiens) [compound 7]”, “″++″ (≥20% = ++)”. Take “9 (ILDDHLSRV; listed as Homo sapiens) [compound 9]”: the Peptide exchange entry is “″++″ (≥20% = ++)”.

For “10 (RMYNKIFAI; listed as Homo sapiens) [compound 10]”, the Peptide exchange result is on record as “″+++″ (≥50 = +++)”. On the same count and under the same terms, the entry for “156 (SLMMTIINL; listed as Homo sapiens) [compound 156]” is “″++++″ (≥75% = ++++)”; for “157 (SLIERDLKL; listed as Homo sapiens) [compound 157]” it is “″+++″ (≥50 = +++)”; for “158 (GLLDPSVFHV; listed as Homo sapiens) [compound 158]” it is “″+++″ (≥50 = +++)”.

With “159 (VLVDDDGIKVV; listed as Homo sapiens) [compound 159]”, the Peptide exchange entry was “″++″ (≥20% = ++)”. With “160 (KLLEFDQLQL; listed as Homo sapiens) [compound 160]”, the Peptide exchange result is reported as “″+++″ (≥50 = +++)”. Still for that read-out and setting: the entry for “161 (FLKNELDNV; listed as Homo sapiens) [compound 161]” is “″+++″ (≥50 = +++)”; for “162 (KLMDYIDEL; listed as Homo sapiens) [compound 162]” it is “″+++″ (≥50 = +++)”. Turning to “163 (RLLHEVQEL; listed as Homo sapiens) [compound 163]”, the Peptide exchange result is given as “″+++″ (≥50 = +++)”. On the same count and under the same terms, in the case of “164 (KMLDEILLQL; listed as Homo sapiens) [compound 164]” it was “″++++″ (≥75% = ++++)”; in that of “165 (RLLDFPEAMVL; listed as Homo sapiens) [compound 165]”, “″++++″ (≥75% = ++++)”. As to “166 (GLLEARGILGL; listed as Homo sapiens) [compound 166]”, the Peptide exchange entry was “″+++″ (≥50 = +++)”. With “167 (SVIDHIHLISV; listed as Homo sapiens) [compound 167]”, the Peptide exchange result is on record as “″+++″ (≥50 = +++)”. Same read-out and setting: the entry for “168 (GLIRFPLMTI; listed as Homo sapiens) [compound 168]” is “″+++″ (≥50 = +++)”; for “169 (YLAHFIEGL; listed as Homo sapiens) [compound 169]” it is “″+++″ (≥50 = +++)”; for “170 (ALAGGITMV; listed as Homo sapiens) [compound 170]” it is “″+++″ (≥50 = +++)”. Consider “171 (RLQETEGMVAV; listed as Homo sapiens) [compound 171]”, for which the Peptide exchange entry was “″++″ (≥20% = ++)”.

In the case of “172 (LLLDTVTMQV; listed as Homo sapiens) [compound 172]”, the Peptide exchange result was “″+++″ (≥50 = +++)”. Still for that read-out and setting: the entry for “173 (KLGDLMVLL; listed as Homo sapiens) [compound 173]” is “″+++″ (≥50 = +++)”. For “174 (ILLDDNMQIRL; listed as Homo sapiens) [compound 174]”, the Peptide exchange entry is “″++++″ (≥75% = ++++)”. Still for that read-out and setting: in the case of “175 (TLLGGKEAQALGV; listed as Homo sapiens) [compound 175]” it was “″+++″ (≥50 = +++)”; in that of “176 (RTLDKVLEV; listed as Homo sapiens) [compound 176]”, “″++″ (≥20% = ++)”. For the substance “177 (ALLQGAIESV; listed as Homo sapiens) [compound 177]”, the Peptide exchange entry was “″+++″ (≥50 = +++)”. The same measure, in the same setting: the entry for “178 (YLFREPATI; listed as Homo sapiens) [compound 178]” is “″++″ (≥20% = ++)”. On the same count and under the same terms, in the case of “179 (RLLSPLSSA; listed as Homo sapiens) [compound 179]” it was “″+++″ (≥50 = +++)”. Still for that read-out and setting: the entry for “181 (NLFDLGGQYLRV; listed as Homo sapiens) [compound 181]” is “″+++″ (≥50 = +++)”; for “182 (SLNKWIFTV; listed as Homo sapiens) [compound 182]” it is “″++++″ (≥75% = ++++)”; for “183 (TLQEVVTGV; listed as Homo sapiens) [compound 183]” it is “″+++″ (≥50 = +++)”. “184 (SLLDENNVSSYL; listed as Homo sapiens) [compound 184]”: the Peptide exchange entry is reported as “″+++″ (≥50 = +++)”. Still for that read-out and setting: in the case of “185 (VLYTGVVRV; listed as Homo sapiens) [compound 185]” it was “″+++″ (≥50 = +++)”; in that of “186 (KMSEKILLL; listed as Homo sapiens) [compound 186]”, “″+++″ (≥50 = +++)”; in that of “187 (GLHNVVYGI; listed as Homo sapiens) [compound 187]”, “″+++″ (≥50 = +++)”. With “188 (FLVDGPRVQL; listed as Homo sapiens) [compound 188]”, the Peptide exchange entry is given as “″+++″ (≥50 = +++)”. On the same count and under the same terms, in the case of “189 (AISEVIGKITA; listed as Homo sapiens) [compound 189]” it was “″+++″ (≥50 = +++)”; in that of “190 (AMAEMVLQV; listed as Homo sapiens) [compound 190]”, “″+++″ (≥50 = +++)”; in that of “191 (QLFSEIHNL; listed as Homo sapiens) [compound 191]”, “″++++″ (≥75% = ++++)”.
